Data taken from US20090068195A1 (Pfizer, published 2009).

B2: sIL-13Rα2-Fc (soluble human IL-13 receptor alpha 2 Fc fusion) (Fc fusion, UniProt Q14627 27-343, looked up, not shown: a dimerising Fc or GST)
chain: DTEIKVNPPQDFEIVDPGYLGYLYLQWQPPLSLDHFKECTVEYELKYRNIGSETWKTIITKNLHYKDGFDLNKGIEAKIHTLLPWQCTNGSEVQSSWAETTYWISPQGIPETKVQDMDCVYYNWQYLLCSWKPGIGVLLDTNYNLFYWYEGLDHALQCVDYIKADGQNIGCRFPYLEASDYKDFYICVNGSSENKPIRSSYFTFQLQNIVKPLPPVYLTFTRESSCEIKLKWSIPLGPIPARCFDYEIEIREDDTTLVTATVENETYTLKTTNETRQLCFVVRSKVNIYCSDDGIWSEWSDKQCWEGEDLSKKTLLR
B4: non-human primate (cynomolgus monkey) IL-13 (ligand)
chain: SPVPPSTALKELIEELVNITQNQKAPLCNGSMVWSINLTAGVYCAALESLINVSGCSAIEKTQRMLNGFCPHKVSAGQFSSLRVRDTKIEVAQFVKDLLVHLKKLFREGQFN
notes: the construct used in the assays is not described; Also used here for endogenous IL-13 of cynomolgus monkeys in the PK-PD fits; also called NHP IL-13; NHP-IL-13

Assays:
[1] = molecular target: B4; test: cell-based or functional assay
native human IL-13 = native human IL-13 (human, UniProt P35225 34-146, limits assumed); test: cell-based or functional assay
native human IL-13, sequence (P35225 other isoform, or with tags, fused parts or gaps limits assumed): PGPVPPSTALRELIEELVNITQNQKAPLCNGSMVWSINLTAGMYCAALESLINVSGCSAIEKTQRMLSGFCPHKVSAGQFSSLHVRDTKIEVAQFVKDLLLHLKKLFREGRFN

FLAG-tagged NHP IL-13 [2] = molecular target: T1, FLAG-tagged NHP IL-13 (cynomolgus monkey, UniProt Q5I6E4 21-132 (Macaca thibetana entry), limits assumed); test: competition ELISA: IL-13Ralpha2-Fc coated on the plate, FLAG-tagged NHP IL-13 added with rising MJ2-7; the blocked partner is IL-13Ralpha2-Fc
T1 chain: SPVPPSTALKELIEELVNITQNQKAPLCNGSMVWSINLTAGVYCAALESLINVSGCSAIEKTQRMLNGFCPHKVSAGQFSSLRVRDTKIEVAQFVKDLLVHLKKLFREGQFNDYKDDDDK
Method: (§1) The ability of MJ2-7 to inhibit binding of NHP IL-13 to IL-13RI1 and IL-13RI2 was tested by ELISA. Recombinant soluble forms of human IL-13RI1-Fc and IL-13RI2-Fc were coated onto ELISA plates. FLAG-tagged NHP IL-13 was added in the presence of increasing concentrations of MJ2-7. […] This provides a basis for the neutralization of IL-13 bioactivity by MJ2-7.

FLAG-tagged NHP IL-13 [3] = molecular target: T1, FLAG-tagged NHP IL-13; test: competition ELISA: IL-13Ralpha1-Fc coated on the plate, FLAG-tagged NHP IL-13 added with rising MJ2-7; the blocked partner is IL-13Ralpha1-Fc
Method: as §1

[4] = molecular target: T2, NHP-IL-13 in a complex with immobilised hu IL-13Rα2-Fc (cynomolgus monkey; human, UniProt Q14627 27-343, limits assumed); test: SPR (BIACORE): antibody injected over NHP IL-13 held by immobilised sIL-13Ralpha2-Fc
T2 construct: Pre-formed ligand-receptor complex on a CM5 chip; not shown: Fc part
Method: (§2) sIL-13RI2-Fc was directly coated onto a CM5 chip by standard amine coupling. NHP-IL-13 at 100 nM concentration was injected, and its binding to the immobilized IL-13RI2-Fc was detected by BIACORE3. An additional injection of 100 nM of anti IL-13 antibodies was added, and changes in binding were monitored.

[5] = molecular target: B2; test: SPR (BIACORE): sIL-13Ralpha2-Fc amine-coupled to a CM5 chip, NHP IL-13 injected at 100 nM
Method: as §2

[6] = molecular target: B4; test: sandwich ELISA for total IL-13 in monkey serum, non-human primate IL-13 standards
Method: The concentrations of total IL-13 in serum samples obtained from hMJ2-7v.2-11-treated monkeys were determined using quantitative ELISA. […] After blocking and washing, the serum samples containing IL-13 from in vivo studies or the non-human primate IL-13 standards were incubated on the plate to allow for binding to the anti-IL-13 capture antibody. […] Streptavidin conjugated to HRP and the enzyme substrate 3,3′,5,5′-tetramethylbenzidine (TMB) peroxidase were added and optical densities were measured at 450 nm. The low limit of quantitation of the assay was approximately 0.15 ng/mL.

B1: mouse monoclonal antibody C65 (antibody, V domains shown)
VH: QVQLKESGPGLVAPSQSLSITCTVSGFSLTGYGVNWVRQPPGKGLEWLGIIWGDGSTDYNSALKSRLIINKDNSKSQVFLKMNSLQTDDTARYFCARDKTFYYDGFYRGRMDYWGQGTSVTVSS
VL: DVQMIQSPSSLSASLGDIVTMTCQASQGTSINLNWFQQKPGKAPKLLIFGASNLEDGVPSRFSGSRYGTNFTLTISSLEDEDMATYFCLQHSYLPWTFGGGTKLEIK
fold decrease in monocyte CD23 expression, potency against MJ2-7 [1]: ~20 fold
fold decrease in STAT6 phosphorylation in HT-29 cells, potency against MJ2-7 (native human IL-13): ~20 fold

B2
STAT6 phosphorylation in HT-29 cells, IC50 (native human IL-13): 0.33 nM

B3: mouse monoclonal antibody MJ 2-7 (antibody, mouse IgG1, V domains shown)
VH: EVQLQQSGAELVKPGASVKLSCTGSGFNIKDTYIHWVKQRPEQGLEWIGRIDPANDNIKYDPKFQGKATITADTSSNTAYLQLNSLTSEDTAVYYCARSEENWYDFFDYWGQGTTLTVSS
VL: DVLMTQTPLSLPVSLGDQASISCRSSQSIVHSNGNTYLEWYLQKPGQSPKLLIYKVSNRFSGVPDRFSGSGSGTDFTLKISRVEAEDLGVYYCFQGSHIPYTFGGGTKLEIK
notes: also called mAb7.1.1; murine MJ2-7
CD23 expression, IC50 [1]: ~0.242 nM
STAT6 phosphorylation in HT-29 cells, IC50 (native human IL-13): 0.48 nM
STAT6 phosphorylation, IC50 (native human IL-13): ~0.293 nM
tenascin C production by BEAS-2B cells, IC50 (native human IL-13): ~0.1 nM
IC50 (read off the curve) (FLAG-tagged NHP IL-13 [2]): ~0.08 nM
IC50 (read off the curve) (FLAG-tagged NHP IL-13 [3]): ~0.4 nM
binding result [4]: no binding

B4
binding result [5]: binds

B5: humanized 13.2v.2 (antibody, V domains shown)
VH: EVQLVESGGGLVQPGGSLRLSCAASGFTFISYAMSWVRQAPGKGLEWVASISSGGNTYYPDSVKGRFTISRDNAKNSLYLQMNSLRAEDTAVYYCARLDGYYFGFAYWGQGTLVTVSS
VL: DIQMTQSPSSLSASVGDRVTITCKASESVDNYGKSLMHWYQQKPGKAPKLLIYRASNLESGVPSRFSGSGSGTDFTLTISSLQPEDFATYYCQQSNEDPWTFGGGTKVEIK
notes: Humanized form of mAb13.2; also called h13.2v2; h13.2v.2
binding result [6]: binds

B6: humanized MJ2-7 v.2-11 (antibody, human IgG1, kappa, V domains shown)
VH: EVQLVESGGGLVQPGGSLRLSCAASGFNIKDTYIHWVRQAPGKGLEWIGRIDPANDNIKYDPKFQGRFTISADNAKNSAYLQMNSLRAEDTAVYYCARSEENWYDFFDYWGQGTLVTVSS
VL: DIQMTQSPSSLSASVGDRVTITCRSSQSIVHSNGNTYLEWYQQKPGKAPKLLIYKVSNRFSGVPSRFSGSGSGTDFTLTISSLQPEDFATYYCFQGSHIPYTFGGGTKVEIKR
STAT6 phosphorylation in HT-29 cells, IC50 (native human IL-13): 0.52 nM
